Target: the molecule itself
Test: co-IP

B1: METTL9-FLAG wild type (mouse) (enzyme)
chain: RRMWTLRSPLSRSLYVNMTSGPGGPAAAAGGGKDTHQWYVCNREKLCESLQSVFVQSYLDQGTQIFLNNSIEKSGWLFIQLYHSFVSSVFSLFMSRTSINGLLGRGSMFVFSPDQFQRLLRINPDWKTHRLLDLGAGDGEVTKIMSPHFEEIYATELSETMIWQLQKKKYRVLGINEWQNTGFQYDVISCLNLLDRCDQPLTLLKDIRSVLEPTQGRVILALVLPFHPYVENVGGKWEKPSEILEIKGQNWEEQVNSLPEVFRKAGFVVEAFTRLPYLCEGDMYNDYYVLDDAVFVLRPV
modifications: N-linked glycans at Asn-35 and Asn-86
stoichiometry N: 2

— article doi:10.64898/2025.12.23.696137 (bioRxiv, 2025)
